According to publication PMC8092592:

How the values were obtained:
[1] = biological target: protein origami tetrahedron TET12SN; experiment: ITC; nanobody titrated into the CC peptide dimer, the origami protein or a preformed nanobody-target complex; conditions in SI Appendix
[2] = substrate: CC protein origami tetrahedron TET12SN; experiment: ITC; nanobody in the syringe titrated into the cell with TET12SN or a tetrahedron variant (2-5 µM), CC peptide dimer (5-10 µM) or a complex preformed by a first titration; MicroCal VP-ITC, 25 °C; 20 mM sodium phosphate pH 7.0, 150 mM NaCl; independent binding sites model (SEDPHAT), errors by Monte-Carlo
[3] = biological target: preformed Nb28_2-TET12SN(22CC) complex (llama); experiment: as above
[4] = biological target: preformed Nb28_2-TET12SN complex (llama); experiment: as above
[5] = biological target: preformed Nb28_(2)-TET12SN complex (llama); experiment: ITC; nanobody titrated into the CC peptide dimer, the origami protein or a preformed nanobody-target complex; conditions in SI Appendix
[6] = substrate: CC protein origami tetrahedron TET12SN; experiment: ITC; titrations at 18, 25 and 32 °C fitted globally (independent binding sites, temperature-independent heat capacity); parameters reported at 25 °C; 20 mM sodium phosphate pH 7.0, 150 mM NaCl
[7] = substrate: CC protein origami tetrahedron variant TET12SN(22CC); experiment: ITC; nanobody in the syringe titrated into the cell with TET12SN or a tetrahedron variant (2-5 µM), CC peptide dimer (5-10 µM) or a complex preformed by a first titration; MicroCal VP-ITC, 25 °C; 20 mM sodium phosphate pH 7.0, 150 mM NaCl; independent binding sites model (SEDPHAT), errors by Monte-Carlo; settings: for stoichiometry N: scale: nanobody per TET12SN(22CC)
[8] = biological target: preformed Nb30_2-TET12SN complex (llama); experiment: as above
[9] = biological target: preformed Nb30_(2)-TET12SN complex (llama); experiment: ITC; nanobody titrated into the CC peptide dimer, the origami protein or a preformed nanobody-target complex; conditions in SI Appendix
[10] = biological target: preformed Nb30_2-TET12SN complex (llama); experiment: ITC; titrations at 18, 25 and 32 °C fitted globally (independent binding sites, temperature-independent heat capacity); parameters reported at 25 °C; 20 mM sodium phosphate pH 7.0, 150 mM NaCl

Row | Binder | Kd [1] [nM] | stoichiometry N (nanobody per TET12SN (cell:syringe)) [2] | Kd [6] [nM] | stoichiometry N (nanobody per TET12SN (cell:syringe)) [6] | Kd [7] [nM] | stoichiometry N [7] | also measured
1 | nanobody Nb26 (VHH) VHH: QVQLQESGGGLVQAGDSLRLSCAASGRTFSTYPMGWFRQAPGKEREFVAASSSRAYYADSVKGRFTISRNNAKNTVYLQMNSLKPEDTAVYYCVADSSPYYRRYDAAQDYDYWGQGTQVTVSS | 1.8 | 2 | – | – | – | – | –
2 | nanobody Nb30 (VHH) VHH: QVQLQESGGGLVQPGGSLRLSCAASGSIFSDNDMGWYRQPPGKQREWVATITYDHVTWYADSVKGRFAISRDNAKNTVYLQMNDLKPEDTAVYYCNAVPGRRGSWGQGTQVTVSS | 350 | 2 | 160 | 2 | 270 | 2 | Kd [3]: 24 nM; stoichiometry N (nanobody per complex (cell:syringe)) [3]: 2; stoichiometry N (nanobody per complex (cell:syringe)) [4]: 2; Kd [5]: 26 nM
3 | nanobody Nb28 (VHH) VHH: QVQLQESGGGLVQPGGSLRLSCAAPGFRLDNYVIGWFRQAPGKEREGVSCISSSAGSTYYADSVKGRFTISRDNAKNTVYLQMNSLKPEDTAVYYCATACYSSYVTYWGQGTQVTVSS | 39 | 2 | 19 | 2 | 27 | 2 | Kd [8]: 2.3 nM; stoichiometry N (nanobody per complex (cell:syringe)) [8]: 2; Kd [9]: 2 nM; Kd [10]: 1.6 nM; stoichiometry N (nanobody per complex (cell:syringe)) [10]: 2

The next lines start with results.

Row | Kd [1] [nM] | stoichiometry N (nanobody per TET12SN (cell:syringe)) [2] | Kd [6] [nM] | stoichiometry N (nanobody per TET12SN (cell:syringe)) [6] | Kd [7] [nM] | stoichiometry N [7] | Binder | also measured
4 | 21000 | 1 | – | – | – | – | nanobody Nb34 (VHH) VHH: QVQLQESGGGLVQPGGSLRLSCAASQFTFSSDWMYWVRQAPGKGLEWVSSISPGGAATAYAASVKGRFTISRDNAKNTLYLQMNSLKSEDTAVYYCSKTRAGTGRGQGTQVTVSS | –
5 | 160 | 2 | – | – | – | – | nanobody Nb49 (VHH) VHH: QVQLQESGGGLVQPGGSLRLSCIASGRTFNPYGMGWFRQVPGKERTFVSGITWIGGTTYYVNSVKGRFTISRDRAKNTVYLQMNSLKPEDTAVYYCAADKDNTGYNYWGQGTQVTVSS | –
6 | – | 2 | – | – | – | – | nanobody Nb39 (VHH) VHH: QVQLQESGGGLVQAGGSLRLSCAASGSIFSINVMGWYRQAPGKQRELLASITSRGSTNYADSVKDRFTISRDNAKNTVYLQINSLKPEDTAVYYCNSRGWTTTRGDYDYWGQGTQVTVSS | KD, high-affinity site [1]: 27 nM; KD, second binding site [1]: 2000 nM
